Experimental data reported in publication PMC12140367, “Discovery, Herbicidal Activity and Biosynthesis of a Novel Natural Tetramic Acid from Alternaria Species” (Advanced Science, 2025).

Assays:
Format in all cases: biochemical, Alternaria alternata
CCC(O)(CC(=O)O)C(=O)O = assay: UPLC-MS quantification of 3EMA formed; details: 250 mM potassium phosphate pH 7.0, 30 °C
CCC(=O)C(=O)O = assay: UPLC-MS quantification of 2EMA formed; details: 1 mM acetyl-CoA, 10 mM MgCl2, potassium phosphate pH 7.5, 30 °C
CCC(C(=O)O)C(O)C(=O)O = assay: UPLC-MS quantification of OVA formed; details: 1 mM NAD+, 5 mM MnCl2, 1 mM DTT, MOPS-KCl pH 7.5, 30 °C

## IPMDH (Alternaria alternata)
CCC(O)(CC(=O)O)C(=O)O
  Km: 786.26 µM

## IPMS (Alternaria alternata)
CCC(=O)C(=O)O
  Km: 164.36 µM

## ISMD (Alternaria alternata)
CCC(C(=O)O)C(O)C(=O)O
  Km: 87.20 µM
